From article PMC4423959, “The Nucleoid Occlusion SlmA Protein Accelerates the Disassembly of the FtsZ Protein Polymers without Affecting Their GTPase Activity” (PLoS ONE, 2015)
Read-outs that look alike come from different tables or passages of the source.

B6: E. coli FtsZ (natural protein, UniProt P0A9A6 1-383, looked up)
chain: MFEPMELTNDAVIKVIGVGGGGGNAVEHMVRERIEGVEFFAVNTDAQALRKTAVGQTIQIGSGITKGLGAGANPEVGRNAADEDRDALRAALEGADMVFIAAGMGGGTGTGAAPVVAEVAKDLGILTVAVVTKPFNFEGKKRMAFAEQGITELSKHVDSLITIPNDKLLKVLGRGISLLDAFGAANDVLKGAVQGIAELITRPGLMNVDFADVRTVMSEMGYAMMGSGVASGEDRAEEAAEMAISSPLLEDIDLSGARGVLVNITAGFDLRLDEFETVGNTIRAFASDNATVVIGTSLDPDMNDELRVTVVATGIGMDKRPEITLVTNKQVQQPVMDRYQQHGMAPLTQEQKPVAKVVNDNAPQTAKEPDYLDIPAFLRKQAD
notes: Cell division protein FtsZ of E. coli; The nucleotide state (GDP: oligomers); In AUC and FCS a tracer share of FtsZ labelled on amine groups with Alexa Fluor 488 (FtsZ-Alexa 488) was mixed with unlabelled FtsZ; also called FtsZ-GDP; FtsZ-GTP; source: isolated as described elsewhere [40]

Key:
FtsZ (Escherichia coli) [1] = biological target: FtsZ (Escherichia coli) (UniProt P0A9A6); conditions: cited from earlier work
FtsZ (Escherichia coli) [2] = biological target: FtsZ (Escherichia coli) (UniProt P0A9A6); conditions: cited from earlier work; remark: listed apart in the source
SlmA [3] = biological target: T1, SlmA (UniProt P0C093 1-198); experiment: fluorescence anisotropy; 300 mM KCl, 2 mM MgCl2; apparent Kd, 4:1 model; dG 20.3 ± 0.2 kcal/mol; 50 mM Tris-HCl, 300 mM KCl, 2 mM MgCl2, pH 7.5, 20 C; 10 nM labeled SBS in SlmA anisotropy titrations; conditions: protein: recombinant; tags: SUMO tag cleaved off; chain copies: 4; label: 5' fluorescein on sense strand (anisotropy); blunt
T1 sequence: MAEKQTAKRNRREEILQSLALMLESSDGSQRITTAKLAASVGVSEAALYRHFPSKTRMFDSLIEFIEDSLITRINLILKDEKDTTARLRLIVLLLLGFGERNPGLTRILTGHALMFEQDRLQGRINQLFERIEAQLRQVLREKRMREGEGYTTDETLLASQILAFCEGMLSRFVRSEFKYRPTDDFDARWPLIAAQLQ

SlmA [4] = biological target: T1, SlmA; experiment: fluorescence anisotropy; 300 mM KCl, 2 mM MgCl2; apparent Kd, 4:1 model; dG 18.0 ± 0.2 kcal/mol; 50 mM Tris-HCl, 300 mM KCl, 2 mM MgCl2, pH 7.5, 20 C; 10 nM labeled SBS in SlmA anisotropy titrations; conditions: protein: recombinant; tags: SUMO tag cleaved off; chain copies: 4; label: fluorescein on T at position 27 from the 5' end of the antisense strand; blunt
SlmA [5] = biological target: T1, SlmA; experiment: fluorescence anisotropy; 300 mM KCl, 2 mM MgCl2; apparent Kd, 4:1 model; dG 17.6 ± 0.2 kcal/mol; 50 mM Tris-HCl, 300 mM KCl, 2 mM MgCl2, pH 7.5, 20 C; 10 nM labeled SBS in SlmA anisotropy titrations; conditions: protein: recombinant; tags: SUMO tag cleaved off; chain copies: 4; label: 5' fluorescein on sense strand (anisotropy); blunt
[6] = biological target: the molecule itself; experiment: SEC-MALS; Superdex 200 10/300 GL, 0.5 mL/min, 20°C, working buffer (50 mM Tris-HCl, 300 mM KCl, 2 mM MgCl2, pH 7.5); SlmA 10 μM (also 6 μM), no DNA
E. coli FtsZ = biological target: B6; experiment: fluorescence polarisation; anisotropy titration of FtsZ with 1 mM GTP + regeneration system into SlmA 2 μM with fluorescein-SBScons 0.2 μM (also 1 μM and 10 nM); 20°C, working buffer (50 mM Tris-HCl, 300 mM KCl, 2 mM MgCl2, pH 7.5); 1:1 model, apparent Kd in FtsZ monomer concentration; conditions: both partners purified
[7] = biological target: the molecule itself; experiment: AUC; sedimentation velocity, 48,000 rpm, 20°C, working buffer (50 mM Tris-HCl, 300 mM KCl, 2 mM MgCl2, pH 7.5); FtsZ-GDP 30 μM total with 6 μM FtsZ-Alexa 488 as tracer, without or with SlmA 15 μM and SBScons 4 μM

MinC (from UniProt P18196)
Kd (FtsZ (Escherichia coli) [1]): 8000 nM

SlmA (from UniProt P0C093)
Kd (FtsZ (Escherichia coli) [2]): 200 nM

B1: SBScons (dsDNA)
DNA 1: AAGTAAGTGAGCGCTCACTTACGT
DNA 2: ACGTAAGTGAGCGCTCACTTACTT
Kd (SlmA [3]): 25 ± 4 nM

B2: SBS17 (dsDNA)
DNA 1: TCAACGTTAGTGACCATTTACTTACTTTTG
DNA 2: CAAAAGTAAGTAAATGGTCACTAACGTTGA
Kd (SlmA [4]): 190 ± 30 nM

B3: SBS12 (dsDNA)
DNA 1: CGCGAAGTGAACGCTAACTCACTG
DNA 2: CAGTGAGTTAGCGTTCACTTCGCG
Kd (SlmA [5]): 270 ± 50 nM

B4: SlmA (free, without DNA) (natural protein, E. coli, UniProt P0C093 1-198, looked up)
chain: MAEKQTAKRNRREEILQSLALMLESSDGSQRITTAKLAASVGVSEAALYRHFPSKTRMFDSLIEFIEDSLITRINLILKDEKDTTARLRLIVLLLLGFGERNPGLTRILTGHALMFEQDRLQGRINQLFERIEAQLRQVLREKRMREGEGYTTDETLLASQILAFCEGMLSRFVRSEFKYRPTDDFDARWPLIAAQLQ
notes: Nucleoid occlusion factor SlmA of E. coli; Dimer by SEC-MALLS in the absence of DNA; also called free SlmA; source: purified and cleaved from SUMO protein essentially as described in [31]
stoichiometry N [6]: 2

B5: SlmA·SBS complex (four SlmA monomers, as two dimers, bound to one SBScons DNA) (complex, E. coli, UniProt P0C093 1-198, looked up)
chain: MAEKQTAKRNRREEILQSLALMLESSDGSQRITTAKLAASVGVSEAALYRHFPSKTRMFDSLIEFIEDSLITRINLILKDEKDTTARLRLIVLLLLGFGERNPGLTRILTGHALMFEQDRLQGRINQLFERIEAQLRQVLREKRMREGEGYTTDETLLASQILAFCEGMLSRFVRSEFKYRPTDDFDARWPLIAAQLQ
notes: Nucleoid occlusion factor SlmA of E. coli; same chain as m2; 4:1 SlmA:SBS by sedimentation velocity and SEC-MALLS; also called SlmA SBScons; SlmA:SBScons
Kd (E. coli FtsZ): 12000 nM

B6
binding result [7]: binds
